Data as given in patent publication US10920254B2, “Methods and materials for producing 5 and 7-carbon monomers” (INVISTA North America S.á.r.l., priority 2015, dated 2021).

Experiments:
Assay type in all cases: biochemical
[1] = ω-transaminase enzyme activity assay, reverse direction (7-aminoheptanoate to pimelate semialdehyde), L-alanine formation by RP-HPLC; conditions: cell free extract; 10 mM 7-aminoheptanoate, 10 mM pyruvate, pH 7.5, 25° C., 4 h; FIG. 13
Method: (§1) A nucleotide sequence encoding an N-terminal His-tag was added to the nucleic acid sequences from Chromobacterium violaceum, Pseudomonas syringae, Rhodobacter sphaeroides, and Vibrio fluvialis encoding the ω-transaminases of SEQ ID NOs: 7, 9, 10, and 12, respectively (see FIGS. 6E-6F) such that N-terminal HIS tagged ω-transaminases could be produced. Each of the resulting modified genes was cloned into a pET21a expression vector under control of the T7 promoter and each expression vector was transformed into a BL21[DE3] E. coli host. The resulting recombinant E. coli strains were cultivated at 37° C. in a 250 mL shake flask culture containing 50 mL LB media and antibiotic selection pressure, with shaking at 230 rpm. Each culture was induced overnight at 16° C. using 1 mM IPTG.
(§2) The pellet from each induced shake flask culture was harvested via centrifugation. Each pellet was resuspended and lysed via sonication. The cell debris was separated from the supernatant via centrifugation and the cell free extract was used immediately in enzyme activity assays.
Enzyme activity assays in the reverse direction (i.e., 7-aminoheptanoate to pimelate semialdehyde) were performed in a buffer composed of a final concentration of 50 mM HEPES buffer (pH=7.5), 10 mM 7-aminoheptanoate, 10 mM pyruvate, and 100 μM pyridoxyl 5′ phosphate. Each enzyme activity assay reaction was initiated by adding cell free extract of the ω-transaminase gene product or the empty vector control to the assay buffer containing the 7-aminoheptanoate and incubated at 25° C. for 4 h, with shaking at 250 rpm. The formation of L-alanine from pyruvate was quantified via RP-HPLC.

[2] = ω-transaminase enzyme activity assay, forward direction (pimelate semialdehyde to 7-aminoheptanoate), pyruvate formation by RP-HPLC; conditions: for acceptance of pimelate semialdehyde as substrate (conversion of L-alanine to pyruvate), confirmed against the empty vector control: cell free extract, 10 mM pimelate semialdehyde, 10 mM L-alanine, pH 7.5, 25° C., 4 h, FIG. 14; for reversibility of the ω-transaminase activity: pimelate semialdehyde accepted, 7-aminoheptanoate synthesized: conclusion from forward and reverse direction assays of Example 1
Method: as §1, §2
Enzyme activity in the forward direction (i.e., pimelate semialdehyde to 7-aminoheptanoate) was confirmed for the transaminases of SEQ ID NO: 9, SEQ ID NO: 10, and SEQ ID NO: 12. Enzyme activity assays were performed in a buffer composed of a final concentration of 50 mM HEPES buffer (pH=7.5), 10 mM pimelate semialdehyde, 10 mM L-alanine, and 100 μM pyridoxyl 5′ phosphate. Each enzyme activity assay reaction was initiated by adding a cell free extract of the ω-transaminase gene product or the empty vector control to the assay buffer containing the pimelate semialdehyde and incubated at 25° C. for 4 h, with shaking at 250 rpm. The formation of pyruvate was quantified via RP-HPLC.

[3] = ω-transaminase enzyme activity assay (7-aminoheptanol to 7-oxoheptanol), L-alanine formation by RP-HPLC; conditions: for acceptance of 7-aminoheptanol as substrate (conversion of pyruvate to L-alanine), confirmed against the empty vector control: cell free extract, 10 mM 7-aminoheptanol, 10 mM pyruvate, pH 7.5, 25° C., 4 h, FIG. 17; for acceptance of 7-oxoheptanol as substrate forming 7-aminoheptanol: concluded from the reversibility of the ω-transaminase activity (Example 1)
Method: A nucleotide sequence encoding an N-terminal His-tag was added to the Chromobacterium violaceum, Pseudomonas syringae, and Rhodobacter sphaeroides nucleic acids encoding the ω-transaminases of SEQ ID NOs: 7, 9 and 10, respectively (see FIGS. 6E-6F), such that N-terminal HIS tagged ω-transaminases could be produced. The modified genes were cloned into a pET21a expression vector under the T7 promoter. Each expression vector was transformed into a BL21[DE3] E. coli host. Each resulting recombinant E. coli strain was cultivated at 37° C. in a 250 mL shake flask culture containing 50 mL LB media and antibiotic selection pressure, with shaking at 230 rpm. Each culture was induced overnight at 16° C. using 1 mM IPTG.
as §2
Enzyme activity assays in the reverse direction (i.e., 7-aminoheptanol to 7-oxoheptanol) were performed in a buffer composed of a final concentration of 50 mM HEPES buffer (pH=7.5), 10 mM 7-aminoheptanol, 10 mM pyruvate, and 100 μM pyridoxyl 5′ phosphate. Each enzyme activity assay reaction was initiated by adding cell free extract of the ω-transaminase gene product or the empty vector control to the assay buffer containing the 7-aminoheptanol and then incubated at 25° C. for 4 h, with shaking at 250 rpm. The formation of L-alanine was quantified via RP-HPLC.

Row | Molecule | acceptance of 7-aminoheptanoate as substrate (conversion of pyruvate to L-alanine), confirmed against the empty vector control [1] | acceptance of pimelate semialdehyde as substrate (conversion of L-alanine to pyruvate), confirmed against the empty vector control [2] | reversibility of the ω-transaminase activity: pimelate semialdehyde accepted, 7-aminoheptanoate synthesized [2] | acceptance of 7-aminoheptanol as substrate (conversion of pyruvate to L-alanine), confirmed against the empty vector control [3] | acceptance of 7-oxoheptanol as substrate forming 7-aminoheptanol [3]
1 | SEQ ID NO: 10: Rhodobacter sphaeroides ω-transaminase, N-terminal HIS tagged | accepted 7-aminoheptanote as substrate | accepted pimelate semialdehyde as substrate | accepted pimelate semialdehyde as substrate and synthesized 7-aminoheptanoate as a reaction product | accepted 7-aminoheptanol as substrate | accept 7-oxoheptanol as substrate and form 7-aminoheptanol
2 | SEQ ID NO: 12: Vibrio fluvialis ω-transaminase, N-terminal HIS tagged (protein, listed as Vibrio fluvialis, N-terminal His tag, Vibrio fluvialis ω-transaminase, N-terminal HIS tagged) MNKPQSWEARAETYSLYGFTDMPSLHQRGTVVVTHGEGPYIVDVNGRRYLDANSGLWNMVAGFDHKGLIDAAKAQYERFPGYHAFFGRMSDQTVMLSEKLVEVSPFDSGRVFYTNSGSEANDTMVKMLWFLHAAEGKPQKRKILTRWNAYHGVTAVSASMTGKPYNSVFGLPLPGFVHLTCPHYWRYGEEGETEEQFVARLARELEETIQREGADTIAGFFAEPVMGAGGVIPPAKGYFQAILPILRKYDIPVISDEVICGFGRTGNTWGCVTYDFTPDAIISSKNLTAGFFPMGAVILGPELSKRLETAIEAIEEFPHGFTASGHPVGCAIALKAIDVVMNEGLAENVRRLAPRFEERLKHIAERPNIGEYRGIGFMWALEAVKDKASKTPFDGNLSVSERIANTCTDLGLICRPLGQSVVLCPPFILTEAQMDEMFDKLEKALDKVFAEVA | accepted 7-aminoheptanote as substrate | accepted pimelate semialdehyde as substrate | accepted pimelate semialdehyde as substrate and synthesized 7-aminoheptanoate as a reaction product | – | –
3 | SEQ ID NO: 7: Chromobacterium violaceum ω-transaminase, N-terminal HIS tagged (protein, listed as Chromobacterium violaceum, N-terminal His tag, Chromobacterium violaceum ω-transaminase, N-terminal HIS tagged) MQKQRTTSQWRELDAAHHLHPFTDTASLNQAGARVMTRGEGVYLWDSEGNKIIDGMAGLWCVNVGYGRKDFAEAARRQMEELPFYNTFFKTTHPAVVELSSLLAEVTPAGFDRVFYTNSGSESVDTMIRMVRRYWDVQGKPEKKTLIGRWNGYHGSTIGGASLGGMKYMHEQGDLPIPGMAHIEQPWWYKHGKDMTPDEFGVVAARWLEEKILEIGADKVAAFVGEPIQGAGGVIVPPATYWPEIERICRKYDVLLVADEVICGFGRTGEWFGHQHFGFQPDLFTAAKGLSSGYLPIGAVFVGKRVAEGLIAGGDFNHGFTYSGHPVCAAVAHANVAALRDEGIVQRVKDDIGPYMQKRWRETFSRFEHVDDVRGVGMVQAFTLVKNKAKRELFPDFGEIGTLCRDIFFRNNLIMRACGDHIVSAPPLVMTRAEVDEMLAVAERCLEEFEQTLKARGLA | accepted 7-aminoheptanote as substrate | – | accepted pimelate semialdehyde as substrate and synthesized 7-aminoheptanoate as a reaction product | accepted 7-aminoheptanol as substrate | accept 7-oxoheptanol as substrate and form 7-aminoheptanol
